Reference: patent US20030206891A1, “Rapamycin-based biological regulation” (ARIAD Gene Therapeutics, Inc., priority 1995, published 2003)

How the values were obtained:
[1] = target: 1FRB-p65(361-550) (human) (UniProt P42345); experiment: cell-based or functional assay
[2] = target: His6-flag-FKBP protein alone (ethanol, no drug) (human); experiment: phage display affinity enrichment: 1 µM His6-flag-FKBP with ethanol alone, Ni-NTA agarose capture, acid elution
[3] = target: His6-flag-FKBP protein with rapamycin (human); experiment: phage display affinity enrichment: FRAP phagemids mixed with pBC control phagemids, 1 µM His6-flag-FKBP plus rapamycin, Ni-NTA agarose capture, acid elution
His6-flag-FKBP protein with rapamycin (human), sequence (chain, as listed by the source limits assumed): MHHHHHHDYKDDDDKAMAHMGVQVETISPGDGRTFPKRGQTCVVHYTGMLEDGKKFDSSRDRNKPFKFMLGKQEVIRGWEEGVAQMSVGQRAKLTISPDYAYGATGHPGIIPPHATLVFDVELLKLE

[4] = target: His6-flag-FKBP protein with FK506 (human); experiment: phage display affinity enrichment: 1 µM His6-flag-FKBP plus FK506, Ni-NTA agarose capture, acid elution
His6-flag-FKBP protein with FK506 (human), sequence (chain, as listed by the source limits assumed): as above

His6-flag-FKBP protein alone (ethanol, no drug) (human), sequence (chain, as listed by the source limits assumed): as above

Substance	SEAP activity of the stable clone at 1100 nM rapamycin (arbitrary fluorescence units) [1]	SEAP activity of the stable clone, no rapamycin (mock transfected cells 47 units) (arbitrary fluorescence units) [1]	SEAP secretion, enhancement with rapamycin over background [1] [fold]	SEAP secretion, transiently transfected HT1080 cells: lowest rapamycin concentration with detectable signal [1] [nM]	SEAP secretion, transiently transfected HT1080 cells: rapamycin concentration of the peak [1] [nM]	fold enrichment of FRAP phage compared to the starting mixture (carb/chlor cfu ratio) [2] [fold]	fold enrichment of FRAP phage compared to the starting mixture (carb/chlor cfu ratio) [3] [fold]	fold enrichment of FRAP phage compared to the starting mixture (carb/chlor cfu ratio) [4] [fold]
ZFHD1-3FKBP (from UniProt P62942 1-107; P62942 1-107; P62942 1-107)	> 90000	54	> 1000	0.5	5			
phagemids displaying FRAP (amino acids 2015-2114) (from UniProt P42345 2015-2114; P03661 216-424)						1.5	271	2.4
